B1: S154D: ACF64 with serine 154 to aspartic acid substitution (protein)
chain: MESNHKSGDGLSGTQKEAALRALVQRTGYSLVQENGQRKYGGPPPGWDTTPPERGCEIFIGKLPRDLFEDELIPLCEKIGKIYEMRMMMDFNGNNRGYAFVTFSNKQEAKNAIKQLNNYEIRNGRLLGVCASVDNCRLFVGGIPKTKKREEILDEMKKVTEGVVDVIVYPSAADKTKNRGFAFVEYESHRAAAMARRRLLPGRIQLWGHPIAVDWAEPEVEVDEDTMSSVKILYVRNLMLSTSEEMIEKEFNSIKPGAVERVKKIRDYAFVHFSNREDAVEAMKALNGKVLDGSPIEVTLAKPVDKDSYVRYTRGTGGRNTMLQEYTYPLSHVYDPTTTYLGAPVFYTPQAYAAIPSLHFPATKGHLSNRALIRTPSVRGAAGVRGLGGRGYLAYTGLGRGYQVKGDKRQDKLYDLLPGMELTPMNTISLKPQGVKLAPQILEEICQKNNWGQPVYQLHSAIGQDQRQLFLYKVTIPALASQNPAIHPFTPPKLSAYVDEAKRYAAEHTLQTLGIPTEGGDAGTTAPTATSATVFPGYAVPSATAPVSTAQLKQAVTLGQDLAAYTTYEVYPTFAVTTRGDGYGTF
B2: ACF64: 64 kDa ACF variant, SEQ ID NO:1 (protein)
chain: MESNHKSGDGLSGTQKEAALRALVQRTGYSLVQENGQRKYGGPPPGWDAAPPERGCEIFIGKLPRDLFEDELIPLCEKIGKIYEMRMMMDFNGNNRGYAFVTFSNKVEAKNAIKQLNNYEIRNGRLLGVCASVDNCRLFVGGIPKTKKREEILSEMKKVTNEGVVDVIVYPSAADKTKNRGFAFVEYESHRTAAMARRKLLPGRIQLWGHGIAVDWAEPEVEVDEDTMSSVKILYVRNLMLSTSEEMIEKEFNNIKPGAVERVKKIRDYAFVHFSNRKDAVEAMKALNGKVLDGSPIEVTLAKPVDKDSYVRYTRGTGGRGTMLQGEYTYSLGQVYDPTTTYLGAPVFYAPQTYAAIPSLHFPATKGHLSNRAIIRAPSVRGAAGVRGLGGRGYLAYTGLGRGYQVKGDKREDKLYDILPGMELTPMNPVTLKPQGIKLAPQILEEICQKNNWGQPVYQLHSAIGQDQRQLFLYKITIPALASQNPAIHPFTPPKLSAFVDEAKTYAAENYTLQTLGIPTDGGDGTMATAAAAATAFPGYAVPNATAPVSAAQLKQAVTLGQDLAAYTNTYEVYPTFAVTARGDGYGTF

System: apoB mRNA editing
Assay: apoB mRNA editing in McArdle cells (ethanol, ACF wild type, mutants and isoforms)
Assay type: cell-based, rat
Experimental: McArdle RH7777 cells (ATCC Manassas, Va.) stably expressing HA epitope-tagged APOBEC-1 (Yang et al. J Biol Chem 272:27700-6 (1997)) were treated for 4 hours with 0.9% ethanol and fractionated into nuclear extracts (Van Mater et al. (1998)).
To calibrate the system cells were incubated in the presence of ethanol for 4 hours and the amount of edited apoB mRNA determined.
The overall expression and subcellular localization of epitope tagged ACF isoforms is established by western blotting of nuclear and cytoplasmic extracts (prepared using NE-PER system; Pierce). These biochemical studies are complemented by immunofluorescence microscopy of paraformaldehyde fixed cells reacted with epitope tag or ACF isoform-specific antibodies. In pilot experiments varying levels of HA-tagged ACF43 and ACF45 were expressed by transfecting differing amounts of cDNA into McArdle or McAPOBEC cells (FIGS. 35A & C, western blots). […] The above transient transfection scenarios can be recapitulated in ethanol treated cells to evaluate the affect of ACF isoform abundance on cells ability to respond to metabolic perturbation. […] ACF expression levels, subcellular localization and editing activity are determined from replicate experiments and the relative affects of overexpressing each isoform compared in the absence (negative control) or presence of ethanol and to the response seen in wild type cells (positive control).

| Molecule | enhancement of editing (stable McArdle cell line) | stimulation of editing by stable ectopic expression compared to untransfected McArdle cells (stable cell line) | further stimulation of editing on addition of ethanol (stable cell line, ethanol) |
| --- | --- | --- | --- |
| B1 | 67% |  |  |
| B2 |  | 19% | 3 fold |
